The values that follow come from US7812117B2, “Vasostatin as marrow protectant” (The United States of America as represented by the …, priority 1998, dated 2010).

Series [1] deals with athymic BALB/c nu/nu mice. The protocol:
(§1) Groups of 6-8 athymic BALB/c nu/nu mice, 6 weeks of age, were first irradiated with 400 rad, and 24 hr later were inoculated s.c. with 8×10^6 Burkitt lymphoma cells (CA46 cell line). Beginning 24 hr after cell inoculation, one group (n=6) of mice received daily s.c. inoculations of buffer alone (100 μl); a second group (n=6) received daily s.c. inoculations of a fusion protein of maltose binding protein and vasostatin, MBP-vaso, alone (200 μg in 100 μl of buffer); a third group (n=8) received daily s.c. inoculations of buffer alone (100 μl) plus cyclophosphamide once on day 9 post cell inoculation (2.6 mg i.p. in 100 μl of buffer); a fourth group (n=8) received daily s.c. inoculations of vaso (200 μg in 100 μl of buffer) plus cyclophosphamide once on day 9 post cell inoculation (2.6 mg i.p. in 100 μl of buffer); a fifth group received daily s.c. inoculations of buffer alone (100 μl) plus daily i.p. inoculations of cyclophosphamide (260 μg/mouse in 100 μl of buffer); and a sixth group received daily s.c. inoculations of vaso (200 μg/mouse in 100 μl of buffer) plus daily i.p. inoculations of cyclophosphamide (260 μg/mouse in 100 μl of buffer).

Series [2] relates to femoral marrow hematopoietic cells. The protocol:
as §1

The test system of series [3] is Burkitt lymphoma cells (CA46 cell line). In words: Burkitt lymphoma CA46 tumor growth in athymic mice treated with vaso and/or cyclophosphamide. The format is in vivo, human. The settings on record: vaso 200 μg/day s.c., cyclophosphamide 260 μg/mouse/day i.p. for 26 days; for average tumor size: buffer control 5.85; for average tumor weight: buffer control 6.75. The protocol:
as §1

The next series relates to bone marrow cells. The protocol: FIG. 2 is set of bar graphs showing of the effects of vaso on cytoxan-induced bone marrow toxicity evaluated by bone marrow cell counting. Bone marrow cells obtained from the femurs of mice treated with cytoxan alone or with vaso were counted. FIG. 2A is a bar graph of bone marrow cell counts 5 days after the injection of cytoxan (1 or 2 mg/mouse) alone or with vaso (300 μg/mouse/day). FIG. 2B is a bar graph of the bone marrow cell counts on days 3 and 5 after treatment with cytoxan (2 mg/mouse) alone or with vaso ([…]).
C57BL6J mice (7 weeks of age) were first treated for 7 days daily with either buffer (100 μl s.c.) or vaso (300 μg/mouse in 100 μl of buffer s.c.). On day 8, groups of mice (n=6) pretreated with either buffer or vaso were injected with cyclophosphamide (1.0 or 2.0 mg/mouse) and continued on daily inoculations of buffer (100 μl s.c.) or vaso (300 μg/mouse in 100 μl of buffer s.c.). Additional control mice were treated with only buffer or vaso for 5 additional days. On days 3 and 5 after cyclophosphamide injection, ½ of the mice were killed for evaluation of the bone marrow and peripheral blood.

The subject of series [4] is human Burkitt lymphoma cell line CA46. Description: CA46 tumor size and weight in irradiated BALB/c nu/nu mice treated with MBP or MBP-vaso. It counts as in vivo. The settings on record: 400 rad, CA46 s.c.; MBP 40 μg/mouse/day or MBP-vaso 60 μg/mouse/day s.c. The protocol: (§2) To examine this further, 7 week old BALB/c nu/nu mice were first irradiated with 400 rad. After 24 hr, the mice were incoculated s.c. with the human Burkitt lymphoma cell line CA46. One group of mice (n=12) was treated s.c. with the control protein maltose binding protein (MBP, 40 μg/mouse/day), whereas another group (n=12) was treated s.c. with MBP-vaso (60 μg/mouse/day). Some of the mice from each group were killed on day 15, whereas the other mice were kept for up to 2.5 months.

In series [5] the test system is bone marrow hematopoietic cells. In words: Radiation-induced toxicity in irradiated tumor-bearing BALB/c nu/nu mice (appearance, femural bone marrow histology). It counts as in vivo, mouse. The protocol: This healthier appearance was due, in part, to the larger weight of mice treated with vaso compared to the controls.
as §2

A further series deals with human CD34+ cells. Description: Proliferation of purified human peripheral blood CD34+ cells. The format is cell-based. The protocol:
FIG. 12 is a bar graph of the proliferative responses of human CD34-positive cells to vaso. Human CD34-positive cells purified (>90% purity) from the peripheral blood of a normal individual after G-CSF mobilization following standard procedures were cultured (1×10^6 cells/ml) in 24 well tissue culture plates in RPMI 1640 medium supplemented with 15% FBS. […] Vaso was added at 10 μg/ml. Cell proliferation was measured during the final 22 hr of a 5, 6 or 9 day culture by ^3H thymidine incorporation. Data is shown as the mean of triplicate cultures.
To this end, CD34+ cells were purified to a high degree of homogeneity (>90% purity) from the peripheral blood of normal donors, according to established protocols (Mavroudis et al. Bone Marrow Transplant 21:431-40, 1998).
(§3) The purified human CD34+ cells along with the negatively selected CD34− mononuclear cell population were cultured in RPMI 1640 medium containing 15% FBS. Human Stem Cell Factor (300 ng/ml) and Flt-3 ligand (300 ng/ml) were added to the culture medium. […] Thus, purified hematopoietic cells from both mouse and man proliferate in response to vaso.
Vaso, calreticulin fragment 103-163, calreticulin fragment 120-146, and calreticulin fragment 128-146 (all used at 10 μg/ml) were tested in side-by-side assays for their ability to stimulate murine bone marrow hematopoietic cells in the presence of IL-3 (20 ng/ml). […]

Series [6] deals with CD34- mononuclear cell population. Description: Proliferation of negatively selected human CD34- mononuclear cells. It counts as cell-based. The conditions noted are these: Stem Cell Factor and Flt-3 ligand alone or in conjunction with vaso. The protocol:
as §3

Where two headings read alike, the source gives them in different places.

For `O=P1(N(CCCl)CCCl)NCCCO1` (stereo not shown) [cyclophosphamide, reference compound], the “mice alive on day 28” value in series [1] (cyclophosphamide 260 μg/mouse i.p. daily for 26 days, alone) is 8/8. Moreover, in series [1] (cyclophosphamide 2.6 mg i.p. once on day 9 alone (daily buffer s.c.), 400 rad, CA46-inoculated, n=8), the “mice alive on day 26” value is recorded as 0/8. Further, the “mice dead on day 13” value in series [1] (cyclophosphamide 2.6 mg i.p. once on day 9 alone, n=8) is reported as 7 out of 8. Also, in series [2] (cyclophosphamide only (260 μg/day, 26 days)), the “histological appearance of femoral marrow” value was “hypocellular and virtually depleted of hematopoietic cells”. Moreover, in series [3], the average tumor size is recorded as 4.98 cm^2 and the average tumor weight was determined as 4.69 g. In addition, the “bone marrow cellularity 5 days after cyclophosphamide” value in the series with bone marrow cells (cyclophosphamide 2 mg/mouse alone, vs control untreated mice) is “clear reduction in cellularity”. In addition, the “marrow cell counts 5 days after cyclophosphamide” value in the series with bone marrow cells (cyclophosphamide 1.0 or 2.0 mg/mouse, alone) is on record as “reduced significantly marrow cell counts”.

B1: vaso: N-terminal domain of calreticulin (amino acids 1-180, SEQ ID NO:3); given as fusion protein with maltose binding protein, MBP-vaso (protein)
chain: EPAVYFKEQFLDGDGWTSRWIESKHKSDFGKFVLSSGKFYGDEEKDKGLQTSQDARFYALSASFEPFSNKGQTLVVQFTVKHEQNIDCGGGYVKLFPNSLDQTDMHGDSEYNIMFGPDICGPGTKKVHVIFNYKGKNVLINKDIRCKDDEFTHLYTLIVRPDNTYEVKIDNSQVESGSLE
modifications: Vasostatin
Take B1: in series [1] (cyclophosphamide 260 μg/mouse i.p. daily in conjunction with vasostatin 200 μg/mouse s.c. daily), the “mice alive on day 28” value is 8/8. Moreover, the “gross and microscopic examination of liver, spleen, kidneys, heart, lung, lymph nodes and bone marrow” value in series [1] (surviving mice, high dose cyclophosphamide plus vaso, day 26) is recorded as “No abnormalities were noted”. Moreover, the “mice alive and well on day 26” value in series [1] (vaso 200 μg s.c. daily plus cyclophosphamide 2.6 mg i.p. once on day 9, n=8, p<0.0001 vs cyclophosphamide alone) is 8/8. In series [1] (vasostatin alone 200 μg s.c. daily), the “mice alive and well on day 28” value is 6/6. Further, the “histological appearance of femoral marrow” value in series [2] (cyclophosphamide 260 μg/day plus vasostatin 200 μg/day, 26 days) is on record as “indistinguishable from a normal control marrow”. In series [3], this molecule returned an average tumor size of 4.85 cm^2 and an average tumor weight of 3.79 g. In the series with bone marrow cells (cyclophosphamide 2 mg/mouse in conjunction with vasostatin), the “bone marrow cellularity 5 days after cyclophosphamide” value is reported as “indistinguishable from that of control mice”. Besides, the “nadir in bone marrow counts on day 3 after cyclophosphamide” value in the series with bone marrow cells (cyclophosphamide 2 mg/mouse with vaso 300 μg/mouse/day) was “reduced the severity of this nadir”. Besides, in the series with bone marrow cells (cyclophosphamide 1.0 or 2.0 mg/mouse together with vaso 300 μg/mouse/day s.c.), the “bone marrow cell counts 5 days after cyclophosphamide” value is “the reduction in bone marrow cell counts was minimal”. In series [4], this molecule registered a tumor size of 0.67 cm^2 and a tumor weight of 0.22 g. The “appearance of irradiated mice” value in series [5] (BALB/c nu/nu mice, 400-450 rad, injected s.c. with human tumor cell lines, vs buffer control) was “appeared healthier”. The “femural bone marrow histology after 400 rad total body irradiation” value in series [5] (MBP 40 μg/mouse/day or MBP-vaso 60 μg/mouse/day s.c. after irradiation) is “can protect the hematopoietic tissue from radiation-induced toxicity”. Further, the “cell growth of purified human CD34+ peripheral blood cells” value in the series with human CD34+ cells (IL-3 alone or IL-3 together with IL-6 and Stem Cell Factor) is recorded as “similarly stimulated cell growth”. Besides, the “proliferation of CD34+ cells” value in the series on human CD34+ cells (vaso 10 μg/ml, Stem Cell Factor 300 ng/ml and Flt-3 ligand 300 ng/ml) is reported as “responded with increased proliferation”. In addition, in series [6], the “proliferation of CD34- cell population” value was “proliferated minimally”.
